How the values were obtained:
[1] = biological target: T1, FN-EIIIB in human patient tissue (PDAC stroma; metastases on a tissue array) (human, UniProt P02751 32-2477); test: immunohistochemistry on a multi-organ metastatic tissue array
T1 construct: Endogenous protein in tissue sections; also called EIIIB expressed in human PDAC stroma; stromal FN-EIIIB
Text: To investigate the expression of EIIIB in metastasis samples from multiple patients, we stained a multi-organ tissue array of samples from various metastatic sites derived from 104 patients with NJB2-biotin. […] In parallel, similar results were obtained with a monoclonal anti-EIIIB antibody (AM3, data not shown). These metastases to multiple organs (21 distinct sites) were derived from 17 different primary sites, including rectum, pancreas, lung, ovary, stomach and thyroid among others (Table 4). Among the EIIIB-positive biopsies, ~32% were metastases to the lymph nodes at the metastatic sites (Table 4). This wide expression of EIIIB at metastatic sites in multiple organs and derived from multiple types of primary tumors further broadens the potential applications of NJB2-based imaging and therapeutic applications.

[2] = biological target: T2, EIIIB domain of fibronectin; test: BLI
T2 construct: domain: EIIIB domain; also called recombinantly expressed EIIIB domain of FN

[3] = biological target: T3, fibronectin (FN) containing the EIIIB domain, in the ECM of aortic endothelial cells from control/wild type … (mouse, UniProt P11276 33-2477); test: biotinylated NJB2 detected with streptavidin-Alexa488 on endothelial cells and their ECM
T3 construct: whole, on cells; Protein stood in the cell-derived extracellular matrix, not on the cell membrane; also called EIIIB domain of FN
Text: The NJB2 was site-specifically labelled with biotin via sortagging and detected with streptavidin-Alexa488. […] The αEIIIB control was cells stained with mouse monoclonal IgG specific to an epitope in the EIIIB domain of FN. The negative control, C, was unstained cells.

T1 sequence (P02751 32-2477): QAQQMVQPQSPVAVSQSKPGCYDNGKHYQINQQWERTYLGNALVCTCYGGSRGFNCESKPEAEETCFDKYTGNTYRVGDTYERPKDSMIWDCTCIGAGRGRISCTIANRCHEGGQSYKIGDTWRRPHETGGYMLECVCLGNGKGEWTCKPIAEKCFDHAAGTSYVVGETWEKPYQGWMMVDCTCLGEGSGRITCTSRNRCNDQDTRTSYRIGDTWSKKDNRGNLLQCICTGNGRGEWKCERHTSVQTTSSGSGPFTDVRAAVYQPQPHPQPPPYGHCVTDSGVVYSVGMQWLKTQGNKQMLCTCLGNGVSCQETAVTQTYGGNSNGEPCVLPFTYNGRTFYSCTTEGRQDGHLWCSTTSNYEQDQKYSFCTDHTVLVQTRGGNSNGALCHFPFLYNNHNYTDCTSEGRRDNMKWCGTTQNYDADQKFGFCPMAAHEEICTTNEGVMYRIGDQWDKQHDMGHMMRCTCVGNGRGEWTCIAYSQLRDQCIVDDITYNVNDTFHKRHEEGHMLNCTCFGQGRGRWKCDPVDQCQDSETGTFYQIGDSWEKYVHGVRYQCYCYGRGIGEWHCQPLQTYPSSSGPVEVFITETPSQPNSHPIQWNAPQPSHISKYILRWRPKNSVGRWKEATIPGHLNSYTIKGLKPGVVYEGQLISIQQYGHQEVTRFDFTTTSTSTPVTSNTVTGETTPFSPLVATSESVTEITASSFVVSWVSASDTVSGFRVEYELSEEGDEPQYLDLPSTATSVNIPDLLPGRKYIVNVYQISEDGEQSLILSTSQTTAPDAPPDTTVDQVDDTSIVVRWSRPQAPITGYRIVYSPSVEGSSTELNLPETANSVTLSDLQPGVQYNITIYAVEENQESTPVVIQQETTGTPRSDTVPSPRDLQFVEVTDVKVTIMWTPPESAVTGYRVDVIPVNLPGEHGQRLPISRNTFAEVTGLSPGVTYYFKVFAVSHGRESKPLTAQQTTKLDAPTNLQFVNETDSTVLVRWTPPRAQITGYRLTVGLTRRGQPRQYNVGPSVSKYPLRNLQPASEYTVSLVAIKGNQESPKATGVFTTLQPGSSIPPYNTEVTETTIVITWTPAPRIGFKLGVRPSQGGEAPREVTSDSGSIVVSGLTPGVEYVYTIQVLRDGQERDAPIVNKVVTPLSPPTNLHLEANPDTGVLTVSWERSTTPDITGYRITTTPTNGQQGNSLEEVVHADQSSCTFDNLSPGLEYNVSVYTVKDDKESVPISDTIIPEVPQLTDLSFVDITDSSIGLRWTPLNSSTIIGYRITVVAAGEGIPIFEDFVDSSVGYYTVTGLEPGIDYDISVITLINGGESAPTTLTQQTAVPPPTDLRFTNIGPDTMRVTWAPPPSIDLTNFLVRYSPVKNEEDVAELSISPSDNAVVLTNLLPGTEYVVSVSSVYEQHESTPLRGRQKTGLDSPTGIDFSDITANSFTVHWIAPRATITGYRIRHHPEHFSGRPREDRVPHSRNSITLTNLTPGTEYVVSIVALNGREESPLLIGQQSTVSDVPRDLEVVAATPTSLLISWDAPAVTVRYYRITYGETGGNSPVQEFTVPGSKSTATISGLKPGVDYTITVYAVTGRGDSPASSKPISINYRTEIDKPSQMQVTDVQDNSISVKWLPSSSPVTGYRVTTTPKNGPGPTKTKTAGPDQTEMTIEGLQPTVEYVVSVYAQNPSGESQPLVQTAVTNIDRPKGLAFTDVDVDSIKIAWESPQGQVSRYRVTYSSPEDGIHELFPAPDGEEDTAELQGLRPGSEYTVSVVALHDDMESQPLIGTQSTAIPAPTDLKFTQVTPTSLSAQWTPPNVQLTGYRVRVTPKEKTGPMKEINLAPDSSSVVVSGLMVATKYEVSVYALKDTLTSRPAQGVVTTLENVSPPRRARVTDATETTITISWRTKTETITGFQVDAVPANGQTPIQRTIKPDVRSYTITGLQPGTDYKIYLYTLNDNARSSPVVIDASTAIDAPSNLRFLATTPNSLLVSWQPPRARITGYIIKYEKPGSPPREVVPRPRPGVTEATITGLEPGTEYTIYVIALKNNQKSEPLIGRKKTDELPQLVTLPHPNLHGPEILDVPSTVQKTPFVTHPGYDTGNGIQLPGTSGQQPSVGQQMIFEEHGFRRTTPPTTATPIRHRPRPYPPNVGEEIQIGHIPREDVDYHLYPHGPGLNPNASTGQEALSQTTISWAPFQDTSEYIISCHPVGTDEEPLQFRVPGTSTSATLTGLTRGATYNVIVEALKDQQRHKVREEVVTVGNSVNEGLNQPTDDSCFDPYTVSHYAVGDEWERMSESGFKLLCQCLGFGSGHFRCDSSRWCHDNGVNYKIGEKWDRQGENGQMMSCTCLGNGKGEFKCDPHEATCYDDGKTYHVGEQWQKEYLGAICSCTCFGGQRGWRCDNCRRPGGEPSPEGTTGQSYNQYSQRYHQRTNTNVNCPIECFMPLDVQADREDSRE
T3 sequence (P11276 33-2477): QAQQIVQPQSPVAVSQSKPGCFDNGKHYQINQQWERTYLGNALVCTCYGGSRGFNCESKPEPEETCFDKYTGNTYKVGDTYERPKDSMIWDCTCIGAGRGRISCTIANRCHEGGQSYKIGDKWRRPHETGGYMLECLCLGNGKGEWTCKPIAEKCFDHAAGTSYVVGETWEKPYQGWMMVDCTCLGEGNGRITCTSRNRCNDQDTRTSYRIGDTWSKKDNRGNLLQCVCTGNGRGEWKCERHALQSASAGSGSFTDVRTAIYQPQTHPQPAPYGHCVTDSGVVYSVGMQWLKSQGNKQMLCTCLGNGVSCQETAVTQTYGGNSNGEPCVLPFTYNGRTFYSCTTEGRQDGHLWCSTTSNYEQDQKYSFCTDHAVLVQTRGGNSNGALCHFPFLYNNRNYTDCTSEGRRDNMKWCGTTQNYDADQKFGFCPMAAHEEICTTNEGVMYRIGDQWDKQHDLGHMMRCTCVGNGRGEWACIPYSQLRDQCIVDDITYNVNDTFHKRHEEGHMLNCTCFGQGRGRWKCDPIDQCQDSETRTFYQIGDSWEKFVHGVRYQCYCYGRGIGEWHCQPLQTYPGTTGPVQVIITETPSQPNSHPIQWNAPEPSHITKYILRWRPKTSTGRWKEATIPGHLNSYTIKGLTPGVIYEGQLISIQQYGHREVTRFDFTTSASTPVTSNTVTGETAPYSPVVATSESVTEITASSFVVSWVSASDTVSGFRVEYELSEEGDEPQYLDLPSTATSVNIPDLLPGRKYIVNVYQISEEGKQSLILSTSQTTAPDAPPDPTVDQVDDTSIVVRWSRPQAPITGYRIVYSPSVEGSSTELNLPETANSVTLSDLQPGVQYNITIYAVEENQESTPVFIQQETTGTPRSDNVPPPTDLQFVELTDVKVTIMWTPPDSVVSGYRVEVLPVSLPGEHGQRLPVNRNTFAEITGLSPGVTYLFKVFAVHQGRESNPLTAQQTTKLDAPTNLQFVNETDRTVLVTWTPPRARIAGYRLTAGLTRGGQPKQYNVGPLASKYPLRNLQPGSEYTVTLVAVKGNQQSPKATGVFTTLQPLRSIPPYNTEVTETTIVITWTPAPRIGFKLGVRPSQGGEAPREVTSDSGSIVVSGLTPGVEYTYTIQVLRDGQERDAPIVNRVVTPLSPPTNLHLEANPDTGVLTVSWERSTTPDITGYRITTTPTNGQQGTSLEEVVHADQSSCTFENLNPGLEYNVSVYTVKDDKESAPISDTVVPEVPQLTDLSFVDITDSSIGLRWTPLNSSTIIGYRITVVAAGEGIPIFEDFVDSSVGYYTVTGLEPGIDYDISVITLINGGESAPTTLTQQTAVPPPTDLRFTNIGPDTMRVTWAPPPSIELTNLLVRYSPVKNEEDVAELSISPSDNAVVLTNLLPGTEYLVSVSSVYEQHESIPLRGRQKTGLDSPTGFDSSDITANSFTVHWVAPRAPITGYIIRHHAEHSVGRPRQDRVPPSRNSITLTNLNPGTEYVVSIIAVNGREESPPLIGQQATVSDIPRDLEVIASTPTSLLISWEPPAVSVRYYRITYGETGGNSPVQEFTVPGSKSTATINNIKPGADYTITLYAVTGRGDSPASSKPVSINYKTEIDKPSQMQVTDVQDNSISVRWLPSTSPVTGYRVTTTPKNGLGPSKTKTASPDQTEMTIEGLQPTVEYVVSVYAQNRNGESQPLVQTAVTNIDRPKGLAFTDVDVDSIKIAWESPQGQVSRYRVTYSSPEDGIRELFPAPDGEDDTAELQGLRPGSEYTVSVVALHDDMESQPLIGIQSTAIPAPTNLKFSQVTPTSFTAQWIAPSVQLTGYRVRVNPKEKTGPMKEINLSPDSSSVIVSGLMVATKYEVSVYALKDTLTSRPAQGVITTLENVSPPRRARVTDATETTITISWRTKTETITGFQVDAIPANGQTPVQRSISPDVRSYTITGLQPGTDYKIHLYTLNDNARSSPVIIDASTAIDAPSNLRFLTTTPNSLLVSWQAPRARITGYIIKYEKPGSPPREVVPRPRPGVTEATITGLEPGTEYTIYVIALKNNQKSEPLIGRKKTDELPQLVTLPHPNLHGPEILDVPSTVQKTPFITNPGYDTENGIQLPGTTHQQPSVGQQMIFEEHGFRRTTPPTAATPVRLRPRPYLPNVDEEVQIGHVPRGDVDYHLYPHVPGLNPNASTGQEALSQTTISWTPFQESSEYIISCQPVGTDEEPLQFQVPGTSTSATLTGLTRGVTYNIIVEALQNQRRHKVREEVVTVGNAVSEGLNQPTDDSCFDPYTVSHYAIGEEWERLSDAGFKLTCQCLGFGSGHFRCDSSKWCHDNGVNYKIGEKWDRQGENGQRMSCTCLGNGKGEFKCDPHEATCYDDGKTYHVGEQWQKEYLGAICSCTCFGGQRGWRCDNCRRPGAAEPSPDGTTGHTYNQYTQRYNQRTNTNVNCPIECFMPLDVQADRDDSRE
T2 sequence (P02751 1271-1359): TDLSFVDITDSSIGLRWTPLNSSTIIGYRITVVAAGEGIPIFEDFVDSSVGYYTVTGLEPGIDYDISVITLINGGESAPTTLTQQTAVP

B1: NJB2 (VHH)
VHH: QVQLVETGGGLVQAGGSLRLSCAASGSTFSHNAGGWYRQAPEKQRELVAGISSDGNINYADSVKDRFTISRDNASNTMYLQMNNLKPEDTAVYVCNIRGSYGNTYYSRWGQGTQVTVSS
modifications: site-specifically labelled via sortagging (LPETG tag) with biotin, Texas Red or 64Cu in the staining and imaging assays
notes: After sortagging the C-terminus differs (label in place of the residues after LPET); also called VHH NJB2; VHH-NJB2
- binding result [1]: binds
- Kd [2]: ~4 nM
- binding result [3]: binds

Reference: patent US20230348605A1 (published 2023)
